Results from US11059903B2, “Anti-PSMA antibodies, uses thereof and conjugates thereof” (Polytherics Limited, priority 2016, dated 2021).

Assay: Heat stress test, aggregation analysed by SEC
Format: physicochemical
Conditions: for Ab in aggregated form (%) / Ab in native conformation (%): post stress test: 0.5 mg/mL in PBS, 75° C. for 30 min, SEC % area
Procedure: Antibody samples (0.5 mg/mL in PBS) were incubated at 75° C. for 30 min followed by incubation in an ice-bath for 5 min prior to being analysed for their extent of aggregation. Analysis of antibody solutions was carried out by Size Exclusion Chromatography (SEC) and by turbidity measurements.
SEC was performed using a TOSOH Bioscience TSK gel Super SW 3000 column. UV absorbance at 280 nm was monitored during an isocratic elution with a 0.2 M Potassium phosphate buffer, pH 6.8 (0.2 M potassium chloride and 15% isopropanol). The elution times and number of peaks indicate whether the sample contains aggregated, degraded or native antibody. The % area under the curve (Abs280) was used to determine the quantity of each species present in the SEC analysis.

Molecule | Stability compared with AB-02 to AB-06 antibodies (heat stress test, in words) | Ab in aggregated form (%) | Ab in native conformation (%)
AB-09: Prior art anti-PSMA antibody, heavy chain SEQ ID No 15, light chain SEQ ID No 16 (antibody, V domains shown) VH: MELGLRWVLLVALLRGVQCQVQLVESGGGVVQPGRSLRLSCAASGFTFSNYVMHWVRQAPGKGLEWVAIIWYDGSNKYYADSVKGRFTISRDNSKNTLYLQMNSLRAEDTAVYYCAGGYNWNYEYHYYGMDVWGQGTTVTVSS VL: MRVPAQLLGLLLLCFPGARCDIQMTQSPSSLSASVGDRVTITCRASQGITNYLAWFQQKPGKAPKSLIYAASSLQSGVPSKFSGSGSGTDFSLTISSLQPEDFATYYCQQYNSYPITFGQGTRLEIK | less stable | 100% | 0%
AB-03: Humanised anti-PSMA antibody, heavy chain SEQ ID No 7, light chain SEQ ID No 8 (antibody, V domains shown) VH: EVQLVQSGAEVKKPGASVKVSCKASGYTFTEYTIHWVRQAPGKGLEWIGNINPNNGGTTYNQKFEDRVTITVDKSTSTAYMELSSLRSEDTAVYYCAGGWTFDYWGQGTTVTVSS VL: DIQMTQSPSTLSASVGDRVTITCKASQDVGTAVDWYQQKPGQAPKLLIYWASTRHTGVPDRFSGSGSGTDFTLTISRLQPEDFAVYYCQQFTRYPLTFGQGTKVDIK |  | 64% | 36%
AB-04: Humanised anti-PSMA antibody, heavy chain SEQ ID No 9, light chain SEQ ID No 8 (antibody, V domains shown) VH: EVQLVQSGAEVKKPGASVKVSCKASGYTFTEYTIHWVRQAPGKGLEWIGNINPNNGGTTYNQKFEDRVTITVDKSTSTAYMELSSLRSEDTAVYYCAGAWTMDYWGQGTTVTVSS VL: DIQMTQSPSTLSASVGDRVTITCKASQDVGTAVDWYQQKPGQAPKLLIYWASTRHTGVPDRFSGSGSGTDFTLTISRLQPEDFAVYYCQQFTRYPLTFGQGTKVDIK |  | 73% | 27%
AB-05: Humanised anti-PSMA antibody, heavy chain SEQ ID No 5, light chain SEQ ID No 10 (antibody, V domains shown) VH: EVQLVQSGAEVKKPGASVKVSCKASGYTFTEYTIHWVRQAPGKGLEWIGNINPNNGGTTYNQKFEDRVTITVDKSTSTAYMELSSLRSEDTAVYYCAAYWLFDYWGQGTTVTVSS VL: DIQMTQSPSTLSASVGDRVTITCKASQDVGTAVDWYQQKPGQAPKLLIYWASTRHTGVPDRFSGSGSGTDFTLTISRLQPEDFAVYYCQQYNAYSLTFGQGTKVDIK |  | 98% | 2%
